Positions of bridges follow the written chain, without caps; N, C: chain ends. Non-standard residues stand in square brackets, D forms with d. No end group written: not given here. d2Nal = N[C@H](Cc1ccc2ccccc2c1)C(=O)O; Hyp = O=C(O)[C@@H]1C[C@@H](O)CN1; Nle = CCCC[C@H](N)C(=O)O
Key:
human MC3R = target: T1, human MC3R (Homo sapiens, UniProt P41968); assay: cAMP accumulation assay (HTRF), antagonist activity at MC3R; assay type: cell-based; details: dose-response fit, MC3R
T1 construct: expressed in transfected cells; host or cells: HEK293/CRE-luc/MC3R
T1 sequence (P41968 whole entry): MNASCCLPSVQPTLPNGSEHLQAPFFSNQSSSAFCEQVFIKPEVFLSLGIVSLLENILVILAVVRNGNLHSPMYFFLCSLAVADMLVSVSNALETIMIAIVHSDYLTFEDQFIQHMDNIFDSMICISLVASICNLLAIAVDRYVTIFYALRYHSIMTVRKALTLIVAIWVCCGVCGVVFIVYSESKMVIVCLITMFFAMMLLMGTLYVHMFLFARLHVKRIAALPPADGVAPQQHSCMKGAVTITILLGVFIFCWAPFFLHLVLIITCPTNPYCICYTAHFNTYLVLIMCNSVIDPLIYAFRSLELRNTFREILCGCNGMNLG
Experimental: (§1) The antagonist activity of exemplary non-naturally occurring melanocortin analogs (SEQ ID NOs: 3, 4, 6, 9-11, 14, 15, and 291-309) at the melanocortin 3 receptor (MC3R) and melanocortin 4 (MC4R) receptor was measured via cAMP accumulation assay, according to the following procedure.
(§2) Recombinant cell lines shown in Table 1 were stimulated with melanocortin receptor antagonists and evaluated for cyclic adenosine monophosphate (cAMP) levels as a measurement of receptor activation. cAMP levels were quantified using Homogeneous Time-Resolved Fluorescence (HTRF). The stimulation and CAMP measurement were performed sequentially. First, the compound stimulated the G-protein coupled receptor (GPCR) which then induced downstream signaling, which was measured soon after. Cell lines and stimulated receptors used are detailed in Table 1.
(§3) Twenty-seven exemplary synthetic peptides were tested for antagonist activity at the human MC3R and MC4R at concentrations ranging from 0.1 nM to 1,000 nM. After stimulation, the level of cyclic adenosine monophosphate (CAMP) in each well was quantified via Homogenous Time-Resolved Fluorescence (HTRF) as a measurement of receptor activity. Dose-response curves and estimated IC50 values were then obtained for each antagonist peptide against the MC3R and MC4R. HS024 (TFA) and was used as a positive control for the antagonist activity of MC3R (FIG. 1A) and MC4R (FIG. 1B).

human MC4R = target: T2, human MC4R (Homo sapiens, UniProt P32245); assay: cAMP accumulation assay (HTRF), antagonist activity at MC4R; assay type: cell-based; details: dose-response fit, MC4R
T2 construct: expressed in transfected cells; host or cells: HEK293/MC4R/CRE-GFP
T2 sequence (P32245 whole entry): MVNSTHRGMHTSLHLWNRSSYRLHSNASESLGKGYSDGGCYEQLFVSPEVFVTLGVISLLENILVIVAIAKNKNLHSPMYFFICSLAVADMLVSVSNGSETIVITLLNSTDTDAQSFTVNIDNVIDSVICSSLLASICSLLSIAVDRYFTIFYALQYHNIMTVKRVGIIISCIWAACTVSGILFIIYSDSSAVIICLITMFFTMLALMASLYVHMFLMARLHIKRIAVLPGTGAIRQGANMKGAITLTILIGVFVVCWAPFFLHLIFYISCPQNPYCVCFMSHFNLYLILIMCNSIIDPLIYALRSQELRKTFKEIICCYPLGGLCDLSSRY
Experimental: as §1, §2, §3

[1] = target: human melanocortin 3 receptor (MC3R) (human, UniProt P41968 1-323); assay: cell-based or functional assay
human melanocortin 3 receptor (MC3R), sequence (P41968 whole entry): as the sequence (P41968 whole entry) above

[2] = target: human melanocortin 4 receptor (MC4R) (human, UniProt P32245 1-332); assay: cell-based or functional assay
human melanocortin 4 receptor (MC4R), sequence (P32245 whole entry): as the sequence (P32245 whole entry) above

Max Activation % [1] | Max Activation % [2] | Molecule | further results
 |  | Leu-c(Asp-Pro-Phe-Phe-Arg-Trp-Lys)-Val-Pro (LDPFFRWKVP; lactam 2-8) [Peptide B3] | Hill Coefficient (human MC3R): 1.00; Top (%) (human MC3R): 100.00%; Hill Coefficient (human MC4R): 9.04
 |  | Leu-c(Asp-Pro-Trp-Arg-Trp-Lys)-Val-Pro (LDPWRWKVP; lactam 2-7) [Peptide C3] | Hill Coefficient (human MC3R): 49.34; Top (%) (human MC3R): 3.18%; Hill Coefficient (human MC4R): 0.44; Top (%) (human MC4R): 9.36%
 |  | VDPFFRWKVP [Peptide B9] | Hill Coefficient (human MC3R): 2.26; Top (%) (human MC3R): 1.22%; Hill Coefficient (human MC4R): −19.71; Top (%) (human MC4R): −0.55%
 |  | VDPWRWKVP [Peptide C9] | Hill Coefficient (human MC3R): 2.95; Top (%) (human MC3R): −64.92%; Hill Coefficient (human MC4R): 0.64; Top (%) (human MC4R): 219.95%
 |  | VPFFRWVP [Peptide B6] | Hill Coefficient (human MC3R): 1.62; Top (%) (human MC3R): 4.27%; Hill Coefficient (human MC4R): 0.28; Top (%) (human MC4R): 37.93%
 |  | VPWRWVP [Peptide C6] | Hill Coefficient (human MC3R): 1.00; Top (%) (human MC3R): 100.00%; Hill Coefficient (human MC4R): 2.07; Top (%) (human MC4R): 321.26%
-0.49% | 2.47% | IPWRWVP [C5] | 
50.1% | 21% | Ac-[Nle]D[Hyp][d2Nal]RWPK[dV][dP]-NH2 (lactam 2-8; SMILES CCCC[C@H](NC(C)=O)C(=O)N[C@H]1CC(=O)NCCCC[C@@H](C(=O)N[C@@H](C(=O)N2CCC[C@@H]2C(N)=O)C(C)C)NC(=O)[C@@H]2CCCN2C(=O)[C@H](Cc2c[nH]c3ccccc23)NC(=O)[C@H](CCCNC(=N)N)NC(=O)[C@@H](Cc2ccc3ccccc3c2)NC(=O)[C@@H]2C[C@@H](O)CN2C1=O) [D4] | IC50 (cAMP by HTRF, antagonist dose-response) [1]: > 10 µM
74.5% | 49.4% | Ac-[Nle]DPH[d2Nal]RWK[dV][dP]-NH2 (lactam 2-8; SMILES CCCC[C@H](NC(C)=O)C(=O)N[C@H]1CC(=O)NCCCC[C@@H](C(=O)N[C@@H](C(=O)N2CCC[C@@H]2C(N)=O)C(C)C)NC(=O)[C@H](Cc2c[nH]c3ccccc23)NC(=O)[C@H](CCCNC(=N)N)NC(=O)[C@@H](Cc2ccc3ccccc3c2)NC(=O)[C@H](Cc2c[nH]cn2)NC(=O)[C@@H]2CCCN2C1=O) [D1] | IC50 (cAMP by HTRF, antagonist dose-response) [1]: 5.81 µM; IC50 (cAMP by HTRF, antagonist dose-response) [2]: > 10000 nM
1.08% | -3.71% | VDPFFRWKVP [B9] | 
1.43% | -2.96% | LDPFFRWKVP [B7] | 
31.8% | 17.6% | Ac-[Nle]DH[d2Nal]RWPK[dV][dP]-NH2 (lactam 2-8; SMILES CCCC[C@H](NC(C)=O)C(=O)N[C@H]1CC(=O)NCCCC[C@@H](C(=O)N[C@@H](C(=O)N2CCC[C@@H]2C(N)=O)C(C)C)NC(=O)[C@@H]2CCCN2C(=O)[C@H](Cc2c[nH]c3ccccc23)NC(=O)[C@H](CCCNC(=N)N)NC(=O)[C@@H](Cc2ccc3ccccc3c2)NC(=O)[C@H](Cc2c[nH]cn2)NC1=O) [D2] | 
-0.32% | -6.88% | LPWRWVP [C4] | 
111% | 117% | Ac-[Nle]D[Hyp][d2Nal]RWK[dV][dP]-NH2 (lactam 2-7; SMILES CCCC[C@H](NC(C)=O)C(=O)N[C@H]1CC(=O)NCCCC[C@@H](C(=O)N[C@@H](C(=O)N2CCC[C@@H]2C(N)=O)C(C)C)NC(=O)[C@H](Cc2c[nH]c3ccccc23)NC(=O)[C@H](CCCNC(=N)N)NC(=O)[C@@H](Cc2ccc3ccccc3c2)NC(=O)[C@@H]2C[C@@H](O)CN2C1=O) [D3] | IC50 (cAMP by HTRF, antagonist dose-response) [1]: 0.087 µM; IC50 (cAMP by HTRF, antagonist dose-response) [2]: 40.6 nM
0.14% | -0.16% | IPFFRWVP [B5] | 
0.16% | 5.86% | LDPWRWKVP [C7] | 
5% | 15.4% | VPFFRWVP [B6] | 
4.55% | 11.1% | Ac-[Nle]DPWRWK[dV][dP]-NH2 (lactam 2-7; SMILES CCCC[C@H](NC(C)=O)C(=O)N[C@H]1CC(=O)NCCCC[C@@H](C(=O)N[C@@H](C(=O)N2CCC[C@@H]2C(N)=O)C(C)C)NC(=O)[C@H](Cc2c[nH]c3ccccc23)NC(=O)[C@H](CCCNC(=N)N)NC(=O)[C@H](Cc2c[nH]c3ccccc23)NC(=O)[C@@H]2CCCN2C1=O) [C1] | 
-0.8% | 6.41% | VPWRWVP [C6] | 
0.27% | -3.3% | Ac-LDPWRWKVP-NH2 (lactam 2-7; SMILES CC(=O)N[C@@H](CC(C)C)C(=O)N[C@H]1CC(=O)NCCCC[C@@H](C(=O)N[C@H](C(=O)N2CCC[C@H]2C(N)=O)C(C)C)NC(=O)[C@H](Cc2c[nH]c3ccccc23)NC(=O)[C@H](CCCNC(=N)N)NC(=O)[C@H](Cc2c[nH]c3ccccc23)NC(=O)[C@@H]2CCCN2C1=O) [C2] | 
4.86% | 13.6% | IDPFFRWKVP [B8] | 
7.92% |  | Ac-[Nle]P[d2Nal]RW[dV][dP]-NH2 (SMILES CCCC[C@H](NC(C)=O)C(=O)N1CCC[C@H]1C(=O)N[C@H](Cc1ccc2ccccc2c1)C(=O)N[C@@H](CCCNC(=N)N)C(=O)N[C@@H](Cc1c[nH]c2ccccc12)C(=O)N[C@@H](C(=O)N1CCC[C@@H]1C(N)=O)C(C)C) [A2] | 
3.32% | 8.07% | LDPWRWKVP (lactam 2-7) [C3] | 
0.47% | 3.02% | IDPWRWKVP [C8] | 
1.24% | 5.89% | VDPWRWKVP [C9] | 

Reference: US20260098072A1, “METHODS OF STIMULATING APPETITE AND/OR INCREASING BODY WEIGHT USING NON-NATURALLY OCCURRING MELANOCORTIN RECEPTOR ANTAGONIST ANALOGS” (Endevica Bio, Inc., priority 2022, published 2026)
